# Assay results as given in patent US20140248666A1 (Amgen, published 2014).
# T1: human sclerostin, mature form (signal peptide removed) (human, UniProt Q9BQB4 24-213)
# T1 construct: 190 amino acid glycoprotein with four disulfide bonds (C1-C5, C2-C6, C3-C7, C4-C8); also called SOST; recombinant human sclerostin
# T1 sequence: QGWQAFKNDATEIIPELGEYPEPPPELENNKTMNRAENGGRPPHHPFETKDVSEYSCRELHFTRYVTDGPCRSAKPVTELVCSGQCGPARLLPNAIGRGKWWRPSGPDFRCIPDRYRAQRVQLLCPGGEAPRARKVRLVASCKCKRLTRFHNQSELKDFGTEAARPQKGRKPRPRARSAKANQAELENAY
# B1: Antibody 4 (antibody, mouse IgG1, kappa, V domains shown)
# VH: EVQLQQSGPELMKPGASVKMSCKASGYTFTDYNMHWVKQNQGKTLEWIGEINPNSGGAGYNQKFKGKATLTVDKSSTTAYMELRSLTSEDSAVYYCARLGYDDIYDDWYFDVWGAGTTVTVSS
# VL: DIQMTQITSSLSASLGDRVSISCRASQDISNYLNWYQQKPDGTFKLLIFYTSRLLSGVPSRFSGSGSGTDYSLTIYNLEQEDFATYFCQQGDTLPYTFGGGTKLEIKR
# notes: Mature LC and HC; Parent of humanized Ab-5; also called Ab-4
# B2: Antibody 14 (antibody, human IgG2, kappa, V domains shown)
# VH: EVQLVQSGAEVKKPGASVKVSCKASGYTFTDYYMNWVRQAPGQRLEWMGDINPYNDDTTYNHKFKGRVTITRDTSASTAYMELSSLRSEDTAVYYCARETAVITTNAMDYWGQGTTVTVSS
# VL: DIQLTQSPSFLSASVGDRVTITCRASSSVTSSYLNWYQQKPGKAPKLLIYSTSNLASGVPSRFSGSGSGTEFTLTISSLQPEDFATYYCQQYDFFPSTFGGGTKVEIKR
# notes: Humanized Ab-13; Mature LC and HC; also called Ab-14; Ab14
# B3: Antibody 19 (antibody, V domains shown)
# VH: EVQLQQSGPELVKPGASVKMSCKASGFTFTDYIMHWVKQKPGQGLEWIGYINPYNDDTEYNEKFKGKATLTSDKSSSTAYMDLSSLTSEGSAVYYCARSIYYYDAPFAYWGQGTLVTVSS
# VL: DIQMTQTTSSLSASLGDRVNISCRASQDISSYLNWYQQKPDGTVKLLIYSTSRLNSGVPSRFSGSGSGTDYSLTISNLAQEDIATYFCQQDIKHPTFGGGTKLELKR
# notes: the signal peptide is not part of the antibody as tested; Parent of humanized Ab-20 and Ab-23; also called Ab-19
# B4: Antibody 13 (antibody, mouse IgG1, kappa, V domains shown)
# VH: EVQLQQSGPELVKPGASVKMSCKASGYTFTDYYMNWVKQSHGESLEWIGDINPYNDDTTYNHKFKGKATLTVDKSSNTAYMQLNSLTSEDSAVYYCARETAVITTNAMDYWGQGTSVTVSS
# VL: QIVLTQSPAIMSASPGEKVTMTCRASSSVTSSYLNWYQQKPGSSPKLWIYSTSNLASGVPARFSGSGSGTSYSLTISSVEAEDAATYYCQQYDFFPSTFGGGTKLEIKR
# notes: Mature LC and HC; Parent of humanized Ab-14; also called Ab-13
# B5: Antibody 5 (antibody, human IgG2, kappa, V domains shown)
# VH: EVQLVQSGAEVKKPGASVKVSCKASGYTFTDYNMHWVRQAPGQGLEWMGEINPNSGGAGYNQKFKGRVTMTTDTSTSTAYMELRSLRSDDTAVYYCARLGYDDIYDDWYFDVWGQGTTVTVSS
# VL: DIQMTQSPSSLSASVGDRVTITCRASQDISNYLNWYQQKPGKAPKLLIYYTSRLLSGVPSRFSGSGSGTDFTLTISSLQPEDFATYYCQQGDTLPYTFGGGTKVEIKR
# notes: Humanized Ab-4; Mature LC and HC; also called Ab-5
# B6: Antibody 23 (antibody, human IgG2, kappa)
# light: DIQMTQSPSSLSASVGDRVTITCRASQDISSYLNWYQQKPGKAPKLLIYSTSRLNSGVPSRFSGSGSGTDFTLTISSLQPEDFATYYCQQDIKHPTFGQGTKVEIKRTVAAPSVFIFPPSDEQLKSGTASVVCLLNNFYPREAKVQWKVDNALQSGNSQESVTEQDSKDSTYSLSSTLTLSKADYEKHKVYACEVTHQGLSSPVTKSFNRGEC
# heavy: EVQLVQSGAEVKKPGSSVKVSCKASGFTFTDYIMHWVRQAPGQGLEWMGYINPYNDDTEYNEKFKGRVTITADKSTSTAYMELSSLRSEDTAVYYCARSIYYYDAPFAYWGQGTLVTVSSASTKGPSVFPLAPCSRSTSESTAALGCLVKDYFPEPVTVSWNSGALTSGVHTFPAVLQSSGLYSLSSVVTVPSSNFGTQTYTCNVDHKPSNTKVDKTVERKCCVECPPCPAPPVAGPSVFLFPPKPKDTLMISRTPEVTCVVVDVSHEDPEVQFNWYVDGVEVHNAKTKPREEQFNSTFRVVSVLTVVHQDWLNGKEYKCKVSNKGLPAPIEKTISKTKGQPREPQVYTLPPSREEMTKNQVSLTCLVKGFYPSDIAVEWESNGQPENNYKTTPPMLDSDGSFFLYSKLTVDKSRWQQGNVFSCSVMHEALHNHYTQKSLSLSPGK
# notes: Humanized Ab-19, IgG2 version; Mature LC and HC; also called Ab-23
# B7: Antibody 3 (antibody, mouse IgG1, kappa)
# light: EIVLTQSPALMAASPGEKVTITCSVSSTISSNHLHWFQQKSDTSPKPWIYGTSNLASGVPVRFSGSGSGTSYSLTISSMEAEDAATYYCQQWSSYPLTFGAGTKLELRRADAAPTVSIFPPSSEQLTSGGASVVCFLNNFYPKDINVKWKIDGSERQNGVLNSWTDQDSKDSTYSMSSTLTLTKDEYERHNSYTCEATHKTSTSPIVKSFNRNEC
# heavy: EVQLQQSGAELVRPGALVKLSCTASDFNIKDFYLHWMRQRPEQGLDWIGRIDPENGDTLYDPKFQDKATLTTDTSSNTAYLQLSGLTSETTAVYYCSREADYFHDGTSYWYFDVWGAGTTITVSSAKTTPPSVYPLAPGSAAQTNSMVTLGCLVKGYFPEPVTVTWNSGSLSSGVHTFPAVLQSDLYTLSSSVTVPSSTWPSETVTCNVAHPASSTKVDKKIVPRDCGCKPCICTVPEVSSVFIFPPKPKDVLTITLTPKVTCVVVDISKDDPEVQFSWFVDDVEVHTAQTQPREEQFNSTFRSVSELPIMHQDWLNGKEFKCRVNSAAFPAPIEKTISKTKGRPKAPQVYTIPPPKEQMAKDKVSLTCMITDFFPEDITVEWQWNGQPAENYKNTQPIMDTDGSYFIYSKLNVQKSNWEAGNTFTCSVLHEGLHNHHTEKSLSHSPGK
# notes: Mature LC and HC (signal peptide removed); Parent of humanized Ab-15; also called Ab-3
# Target: T1, human sclerostin, mature form (signal …)
# Assay: KinExA solution equilibrium binding, human sclerostin-coated beads
# Protocol: The affinity of several anti-sclerostin antibodies to human sclerostin was assessed by a solution equilibrium binding analysis using KinExA® 3000 (Sapidyne Instruments Inc., Boise, Id.). For these measurements, Reacti-Gel 6× beads (Pierce, Rockford, Ill.) were pre-coated with 40 μg/ml human sclerostin in 50 mM Na2CO3, pH 9.6 at 4° C. overnight. The beads were then blocked with 1 mg/ml BSA in 1M Tris-HCl, pH 7.5 at 4° C. for two hours. 10 pM, 30 pM, or 100 pM of the antibody was mixed with various concentrations of human sclerostin, ranging in concentration from 0.1 pM to 1 nM, and equilibrated at room temperature for over 8 hours in PBS with 0.1 mg/ml BSA and 0.005% P20. The mixtures were then passed over the human sclerostin coated beads. The amount of bead-bound anti-sclerostin antibody was quantified using fluorescent Cy5-labeled goat anti-mouse-IgG or fluorescent Cy5-labeled goat anti-human-IgG antibodies (Jackson Immuno Research, West Grove, Pa.) for the mouse or human antibody samples, respectively. The amount of fluorescent signal measured was proportional to the concentration of free anti-sclerostin antibody in each reaction mixture at equilibrium. The dissociation equilibrium constant (KD) was obtained from nonlinear regression of the competition curves using a n-curve one-site homogeneous binding model provided in the KinExA Pro software.
row,Kd,Binder
1,3 pM,B1
2,1 pM,B2
3,3 pM,B3
4,0.6 pM,B4
5,6 pM,B5
6,4 pM,B6

# Target: T1, human sclerostin, mature form (signal …)
# Assay: Biacore 3000; antibody captured by anti-human IgG Fc, sclerostin as analyte
# Protocol: The assay format was capture of the anti-sclerostin antibody by immobilised anti-human IgG-Fc then titration of the sclerostin over the captured surface. An example of the procedure is given below: BIA (Biamolecular Interaction Analysis) was performed using a BIAcore 3000 (BIAcore AB). Affinipure F(ab′)₂ Fragment goat anti-human IgG, Fc fragment specific (Jackson
# ImmunoResearch) was immobilised on a CM5 Sensor Chip via amine coupling chemistry to a capture level of ≈4000 response units (RUs). HBS-EP buffer (10 mM HEPES pH 7.4, 0.15 M NaCl, 3 mM EDTA, 0.005% Surfactant P20, BIAcore AB) containing 1 mg/mL CM-Dextran was used as the running buffer with a flow rate of 10 μl/min. A 10 μl injection of the anti-sclerostin antibody at ˜5 μg/mL was used for capture by the immobilised anti-human IgG-Fc. Antibody capture levels were typically 100-200 RU. Sclerostin was titrated over the captured anti-sclerostin antibody at various concentrations at a flow rate of 30 μL/min. The surface was regenerated by two 10 μL injections of 40 mM HCl, followed by a 5 μL injection of 5 mM NaOH at a flowrate of 10 μL/min.
# Background subtraction binding curves were analysed using the BIAevaluation software (version 3.2) following standard procedures. Kinetic parameters were determined from the fitting algorithm.
Kd,koff,kon,Binder
1.48 pM,4.87e-06 s⁻¹,3.3e+06 M⁻¹ s⁻¹,B2
97.8 pM,0.000174 s⁻¹,1.78e+06 M⁻¹ s⁻¹,B5

# Target: T1, human sclerostin, mature form (signal …)
# Assay: Biacore cross-blocking, human sclerostin on CM5 chip; mixed with competitor Ab-3, each 1.3 uM binding sites
# Protocol: (§1) Human sclerostin was coupled to a CM5 Biacore chip using standard amine coupling chemistry to generate a sclerostin coated surface. 300 resonance units of sclerostin were coupled to the surface.
# (§2) 20 μL of the test mixture was passed over the sclerostin-coated chip at a flow rate of 10 μL/min and the amount of binding recorded. The chip was then treated with two 60 second pulses of 30 mM HCl to remove all of the bound antibody. A solution containing only one of the antibodies of the test mixture (at 1.3 μM in the same buffer as the test mixture on a binding site basis) was then passed over the chip in the same manner as the test mixture and the amount of binding recorded. The chip was again treated to remove all of the bound antibody and finally a solution containing the other antibody from the test mixture alone (at 1.3 μM in the same buffer as the test mixture on a binding site basis) was passed over the chip and the amount of binding recorded.
# (§3) The table below show the results from cross-blocking assays on a range of different antibodies. The values in each square of the table represent the amount of binding (in RU) seen when the antibodies (at 1.3 μM on a binding site basis) or buffer indicated in the top row of the table were mixed with the antibodies (at 1.3 uM on a binding site basis) or buffer indicated in the first column of the table.
row,amount of binding (RU),Binder
1,869 RU,B1
2,892 RU,B3
3,432 RU,B4

# Target: T1, human sclerostin, mature form (signal …)
# Assay: Biacore cross-blocking, human sclerostin on CM5 chip; mixed with competitor Ab-4, each 1.3 uM binding sites
# Protocol: as §1, §2, §3
row,amount of binding (RU),Binder
1,789 RU,B3
2,845 RU,B7
3,1010 RU,B4

# Target: T1, human sclerostin, mature form (signal …)
# Assay: Biacore cross-blocking, human sclerostin on CM5 chip; mixed with competitor Ab-A, each 1.3 uM binding sites
# Protocol: as §1, §2, §3
row,amount of binding (RU),Binder
1,860 RU,B1
2,863 RU,B3
3,952 RU,B7
4,1110 RU,B4

# Target: T1, human sclerostin, mature form (signal …)
# Assay: Biacore cross-blocking, human sclerostin on CM5 chip; mixed with competitor Ab-13, each 1.3 uM binding sites
# Protocol: as §1
# (§4) The antibodies to be tested were diluted to a concentration of 200 ug/ml in HBS-EP buffer (being 10 mM HEPES pH 7.4, 150 mM NaCl, 3 mM EDTA, 0.005% (v/v) Surfactant P20) and then mixed in a one to one molar ratio (on a binding site basis) to generate the test mixture. This test mixture thus contained each antibody at a concentration of 100 ug/ml (1.3 um on a binding site basis). Separate solutions containing each of the antibodies in the test mix alone were also prepared. These solutions contained the individual antibodies in HBS-EP buffer at a concentration of 100 ug/ml (1.3 um on a binding site basis).
# as §2
row,amount of binding (RU),Binder
1,1020 RU,B1
2,1020 RU,B3
3,428 RU,B7

# Target: T1, human sclerostin, mature form (signal …)
# Assay: Biacore cross-blocking, human sclerostin on CM5 chip; mixed with competitor Ab-19, each 1.3 uM binding sites
# Protocol: as §1, §4, §2
row,amount of binding (RU),Binder
1,822 RU,B1
2,896 RU,B7
3,1040 RU,B4

# Target: T1, human sclerostin, mature form (signal …)
# Assay: Biacore cross-blocking on human sclerostin; mixture with competitor Ab-3, mean RU against the sum of each alone
# Protocol: as §1, §4, §2
row,percentage of the theoretical binding,Binder
1,85.4%,B1
2,58%,B4

# Target: T1, human sclerostin, mature form (signal …)
# Assay: Biacore cross-blocking on human sclerostin; mixture with competitor Ab-19, mean RU against the sum of each alone
# Protocol: as §1, §4, §2
row,percentage of the theoretical binding,Binder
1,60.8%,B1
2,94.4%,B7
3,97%,B4
